T1: CD123 (Homo sapiens (Human), UniProt P26951 19-305, limits assumed)
T1 construct: The CD123 construct used in the ELISA is not described; also called CD123-Signal
T1 sequence: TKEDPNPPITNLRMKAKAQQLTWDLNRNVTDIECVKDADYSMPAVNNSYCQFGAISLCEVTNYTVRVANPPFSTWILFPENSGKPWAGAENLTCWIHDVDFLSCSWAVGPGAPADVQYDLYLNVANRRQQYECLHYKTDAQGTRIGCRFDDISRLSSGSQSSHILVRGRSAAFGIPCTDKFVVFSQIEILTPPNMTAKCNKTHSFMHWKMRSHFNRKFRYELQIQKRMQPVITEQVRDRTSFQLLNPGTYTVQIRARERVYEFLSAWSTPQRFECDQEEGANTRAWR


Molecular target: T1, CD123
Assay: ELISA
Set-up: unit not given here

ELISA_avg	Binder
7	D domain of SEQ ID NO: 629 (designed binder) MGSWIEFDERLDAIDFRLWALGGSEAELAWFEGWIAEFESDLQLYKGKGNPEVEALNEEANAIFHELSAYRHN
3.2	D domain of SEQ ID NO: 611 (designed binder) MGSWYEFVSRLDAIEYRLWALGGSEAELAWFEWDIADFEQGLQFYKGKGNPEVEALAQEANAIGSELTAYRHN
4.5	D domain of SEQ ID NO: 634 (designed binder) MGSWFEFGDRLEAIDERLYALGGSEAELAQFEWWIAEFEHHLQDYKGKGNPEVEALEYEADAIWGELHAYRHN
3.6	D domain of SEQ ID NO: 605 (designed binder) MGSWAEFDSRLIAIFDRLWALGGSEAELAWFEDDIAQFEQHLQAYKGKGNPEVEALRQEADAITFELKAYRHN
5.9	D domain of SEQ ID NO: 606 (designed binder) MGSWTEFEERLEAIWDRLYALGGSEAELAAFEWDIAYFEDGLQEYKGKGNPEVEALFMEAEAIIRELKAYRHN
6.4	D domain of SEQ ID NO: 607 (designed binder) MGSWYEFEDRLAAIWDRLNALGGSEAELAIFEWDIAWFEEGLQEYKGKGNPEVEALKHEASAIQTELFAYRHN
6.8	D domain of SEQ ID NO: 621 (designed binder) MGSWMEFEDRLMAIVDRLWALGGSEAELADFEWNIAMFEEELQWYKGKGNPEVEALGDEAEAIEWELYAYRHN
9.5	D domain of SEQ ID NO: 620 (designed binder) MGSWIEFEDRLDAITDRLWALGGSEAELAEFEHQIAFFEEDLQWYKGKGNPEVEALHMEAEAIMEELGAYRHN
4.1	D domain of SEQ ID NO: 625 (designed binder) MGSWFEFDDRLEAIFDRLWALGGSEAELAMFEFAIAEFEDALQEYKGKGNPEVEALYEEAVAIDEELYAYRHN
3.3	D domain of SEQ ID NO: 624 (designed binder) MGSWVEFDNRLFAIDERLWALGGSEAELAWFEEEIASFEDNLQKYKGKGNPEVEALQLEAFAIMEELDAYRHN
4.4	D domain of SEQ ID NO: 612 (designed binder) MGSWEEFDYRLYAIQDRLYALGGSEAELAFFEWEIADFEHMLQMYKGKGNPEVEALFQEADAIDAELHAYRHN
3.4	D domain of SEQ ID NO: 627 (designed binder) MGSWVEFDSRLAAIDYRLEALGGSEAELAWFEYTIANFEHTLQMYKGKGNPEVEALVYEAHAIATELQAYRHN
3	D domain of SEQ ID NO: 631 (designed binder) MGSWYEFDERLDAIFDRLWALGGSEAELAYFEQVIATFEKTLQRYKGKGNPEVEALDTEAKAISWELDAYRHN
3.2	D domain of SEQ ID NO: 602 (designed binder) MGSWNEFVERLSAIDHRLWALGGSEAELADFEQQIAEFEIHLQEYKGKGNPEVEALDFEADAIFDELLAYRHN
5.5	D domain of SEQ ID NO: 632 (designed binder) MGSWYEFQERLDAIDSRLWALGGSEAELAWFEYTIAEFEKELQMYKGKGNPEVEALGTEAVAISEELMAYRHN
3.5	D domain of SEQ ID NO: 610 (designed binder) MGSWFEFTIRLEAIQDRLDALGGSEAELAWFEWDIAEFEEGLQFYKGKGNPEVEALHTEADAIMNELVAYRHN
8.2	D domain of SEQ ID NO: 623 (designed binder) MGSWEEFLFRLEAIQDRLWALGGSEAELAWFEYEIASFEDVLQSYKGKGNPEVEALSTEAKAIDYELFAYRHN
4.4	D domain of SEQ ID NO: 600 (designed binder) MGSWYEFWDRLTAIEHRLWALGGSEAELAYFEDSIAHFEGSLQVYKGKGNPEVEALYKEAEAIEWELEAYRHN
4	D domain of SEQ ID NO: 636 (designed binder) MGSWVEFMDRLEAIEERLSALGGSEAELAFFEWEIAEFEEHLQVYKGKGNPEVEALEWEALAITEELAAYRHN
3.9	D domain of SEQ ID NO: 635 (designed binder) MGSWFEFNDRLDAISERLSALGGSEAELAYFEWQIAVFEKTLQNYKGKGNPEVEALTLEANAIFEELEAYRHN
4.1	D domain of SEQ ID NO: 618 (designed binder) MGSWYEFEERLDAIEDRLIALGGSEAELAIFEDIIAFFEQDLQYYKGKGNPEVEALEMEAEAISIELDAYRHN
9.4	D domain of SEQ ID NO: 633 (designed binder) MGSWEEFEDRLWAIDGRLYALGGSEAELAWFEQWIATFEEDLQDYKGKGNPEVEALEYEASAIFEELEAYRHN

ELISA_avg	Binder
4.5	D domain of SEQ ID NO: 641 (designed binder) MGSWYEFVYRLRAIDERLDALGGSEAELAMFEFEIAFFEDQLQRYKGKGNPEVEALVDEAQAIDFELFAYRHN
3.1	D domain of SEQ ID NO: 616 (designed binder) MGSWLEFEYRLDAIYDRLFALGGSEAELAAFEQDIADFEKYLQYYKGKGNPEVEALWEEADAIMWELFAYRHN
3.8	D domain of SEQ ID NO: 614 (designed binder) MGSWYEFSSRLNAIDDRLWALGGSEAELAYFETDIADFESLLQWYKGKGNPEVEALLNEADAIDYELYAYRHN
5.8	D domain of SEQ ID NO: 617 (designed binder) MGSWHEFEERLMAIEDRLWALGGSEAELAEFEQWIALFEYDLQEYKGKGNPEVEALGMEAFAINNELSAYRHN
10	D domain of SEQ ID NO: 640 (designed binder) MGSWYEFEWRLDAIDRRLWALGGSEAELADFEEEIADFEWMLQNYKGKGNPEVEALVDEASAIQTELWAYRHN
4.5	D domain of SEQ ID NO: 628 (designed binder) MGSWTEFDERLDAIDWRLEALGGSEAELAWFEGDIALFEQYLQVYKGKGNPEVEALMEEADAIKAELDAYRHN
4.7	D domain of SEQ ID NO: 601 (designed binder) MGSWYEFDDRLWAIFDRLFALGGSEAELAFFEDSIAEFEEELQHYKGKGNPEVEALYLEAWAIENELGAYRHN
3.7	D domain of SEQ ID NO: 622 (designed binder) MGSWEEFEDRLFAIDSRLWALGGSEAELAEFENIIASFEEVLQEYKGKGNPEVEALSVEAFAIDRELGAYRHN
3.2	D domain of SEQ ID NO: 639 (designed binder) MGSWWEFEIRLDAIDERLWALGGSEAELAWFEQSIAFFENDLQVYKGKGNPEVEALRWEANAIIEELFAYRHN
5.3	D domain of SEQ ID NO: 603 (designed binder) MGSWSEFVDRLDAIFDRLWALGGSEAELAWFEDTIAHFEWNLQEYKGKGNPEVEALNGEADAITDELHAYRHN
3.4	D domain of SEQ ID NO: 608 (designed binder) MGSWLEFESRLWAIWDRLDALGGSEAELAHFEQDIADFEMSLQEYKGKGNPEVEALIREAEAIETELYAYRHN
3.5	D domain of SEQ ID NO: 613 (designed binder) MGSWIEFFHRLDAIQDRLDALGGSEAELAYFEWAIADFEHMLQLYKGKGNPEVEALQFEAFAIEGELYAYRHN
4	D domain of SEQ ID NO: 615 (designed binder) MGSWFEFEYRLDAIIDRLFALGGSEAELAEFESMIANFEYSLQEYKGKGNPEVEALYFEADAIVDELTAYRHN
3.2	D domain of SEQ ID NO: 630 (designed binder) MGSWWEFDSRLDAIDFRLWALGGSEAELAWFEVEIADFEDWLQLYKGKGNPEVEALWHEADAIVTELYAYRHN
6.5	D domain of SEQ ID NO: 637 (designed binder) MGSWIEFMDRLWAIDQRLWALGGSEAELAWFEEEIAWFEEELQVYKGKGNPEVEALEWEATAISEELWAYRHN
4	D domain of SEQ ID NO: 626 (designed binder) MGSWFEFDARLMAINDRLWALGGSEAELAAFEYHIALFEDQLQMYKGKGNPEVEALTLEAVAINEELWAYRHN
3.6	D domain of SEQ ID NO: 619 (designed binder) MGSWHEFEKRLYAIEDRLIALGGSEAELAWFEDSIAWFEWDLQMYKGKGNPEVEALNEEADAIYQELDAYRHN
4.5	D domain of SEQ ID NO: 599 (designed binder) MGSWSEFWFRLDAIEDRLWALGGSEAELAEFEDNIALFEYSLQHYKGKGNPEVEALVKEANAIDDELGAYRHN
3.7	D domain of SEQ ID NO: 609 (designed binder) MGSWMEFEDRLIAIWARLDALGGSEAELAWFEADIADFEESLQEYKGKGNPEVEALIFEAIAINKELMAYRHN
5.4	D domain of SEQ ID NO: 638 (designed binder) MGSWEEFNWRLRAIDERLFALGGSEAELAWFEYDIAEFEEQLQVYKGKGNPEVEALRVEAAAIAEELYAYRHN
3.6	D domain of SEQ ID NO: 604 (designed binder) MGSWAEFDSRLDAIAQRLFALGGSEAELAHFEDFIAQFEYSLQEYKGKGNPEVEALSNEADAIFNELKAYRHN

— patent US20250026849A1 (ARCELLX, published 2025)
